The record followed here is article PMC8083607 (2021).

Changes are numbered by the printed parent chain.

The labels stand for the following.
B1: FC11 (antibody, V domains shown)
VH: EVQLLESGGGVVQPGRSLRLSCAASGFTFSYYGMHWVRQAPGTGLEWVAVISYDGSNEYYADSVKGRFTISRDNSKNTLYLQMNSLRAEDTAVYYCAKAMFLGDSSGLTGLDMDVWGQGTTVTVSS
VL: DIELTQSPGTLSLSPGERATLSCRASQSVSSYLAWYQQKPGQAPRLLIYDASNRATGIPARFSGSGSGTDFTLTISSLEPEDFALYYCQQRGNWPPTFGGGTKLEIK
B2: FC08 (antibody, V domains shown)
VH: QLLQQSGAEVKKPGSSVKVSCKASGGTFSSYAISWVRQAPGQGLEWMGGIIPIIGIANYAQKFQGRVTITADKSTSTAYMELSSLRSEDTAVYYCARERGYSGYGAAYYFDYWGQGTLVTVSS
VL: SVLTQPPSVSGAPGQRVTISCTGSSSNIGAGYDVHWYQQLPGTAPKLLIYGNSNRPSGVPDRFSGSKSGTSASLAITGLQAEDEADYYCQSYDSSLSGSVFGGGTKLTVL
B3: FC01 (antibody, V domains shown)
VH: EVQLLESGTEVKKPGSSVKVSCKASGGTFSSYAISWVRQAPGQGLEWMGGIIPILGIANYAQKFQGRVTITADKSTSTAYMELSSLRSEDTAVYYCARERGYSGYGAAYYFDYWGQGTLVTVSS
VL: QSVLTQAPSVSGAPGQSVTISCTGSSSNIGAGYDVHWYQQLPGTAPKLLIYGNNNRPSGVPDRFSGSKSGTSASLAITGLQAEDEADYYCQSYDSSLSKGVFGGGTKLTVL
B4: FC118 (antibody, V domains shown)
VH: EVQLLESGGGVVQPGRSLRLSCAASGFTFSSYAMHWVRQAPGKGLEWVAVISYDGSNKYYADSVKGRFTISRDNSKNTLYLQMNSLRAEDTAVYYCARARGGSYLYGMDVWGQGAMVTVSS
VL: DIELTQSPSSLAASVGDTVTITCRASQTIGKYLTWYQKKPGRAPDLLIYAASRLQSGVPSRFSGRASGTEFTLTISSLQPEDFATYFCQHTYRTLSFGPGTKVDLK
B5: FC122 (antibody, V domains shown)
VH: B4 VH with V50L, S56I, K65N, N77Y, R100H, G101R, L105Y, A115T
VL: DIELTQSPSSLSASVGDSVTITCRGSQIISRYLNWYQQKPGKAPKLLIYAASTLQSGVPSRFSGSGSGTEFTLSISSLEPEDFATYYCQQSYAIPYTFGQGTRLEI
B6: FC124 (antibody, V domains shown)
VH: B4 VH with V50L, S56I, K65N, N77Y, R100H, G101R, L105Y, A115T
VL: DIELTQSPGTLSLSPGERATLYCRASQSVSSSYLAWYQQKPGQAPRLLIYGAFGRAAGIPDRFRGSGSGTQFTLTISRLEPEDSAVYFCQQYGQSPLYSFGQGTKLEIK
B7: FC120 (antibody, V domains shown)
VH: EVQLLESGAEVKKPGASVKVSCKASGYTFTSYYMHWVRQAPGQGLEWMGIINPSGGSTSYAQKFQGRVTMTRDTSTSTVYMELSSLRSEDTAVYYCARGGGHALDIWGQGTMVTVSS
VL: QSVLTQPPSVSGAPGQKVTISCSGSSSNIGNNYVSWYQQLPGTAPKLLIYDNNKRPSGIPDRFSGSKSGTSATLGITGLQTGDEADYYCGTWDSSLSAWVFGGGTKLTVL
B8: FC07 (antibody, V domains shown)
VH: EVQLLESGGGLVQPGGSLRLSCAASGFTFGSYAMSWVRQAPGKGLEWVSSISGSGGSTYYADSAKGRFTISRDNSKNTLYLQMNSLRAEDTAVYYCAKSPNYDILTGYYNWAGYYFDYWGQGTLVTVSS
VL: DIELTQSPGTLSLSPGDRATLSCRASRGVSSNSLAWYRQRPGESPRLVISGASTRATGIPERFSGSGSGTDFSLSISRLQPEDFAVYYCQQYGSFPFTFGPGTTVDV
B9: FC06 (antibody, V domains shown)
VH: EVQLLESGGGVVQPGRSLRLSCAASGFTFSSYAMHWVRQAPGEGLEWVAVISYDGSNKYYADSVKGRFTISRDNSKNTLYLQMNSLRAGDTAVYYCARLNYYGSGFYYRLGDDYWGQGTLVTVSS
VL: DIELTQSPSSLSASEGDRVTITCRASQGIRNDLGWYQQKPGKAPKRLIYGAPSLQSGVPSRFSGSGSGTEFTLTISTLQPEDSATYYCLQHNKYPWTFGQGTKVEIK
B10: FC05 (antibody, V domains shown)
VH: VQLLEQSGAEVKKPGASVRVSCKVSGYTLPEVAMHWVRQAPGKGLEWMGGFDPEDGETMYAQKFQGRVTMTEDTSTDTAYMELSSLRSEDTAVYYCATTTPFSSSYWFDPWGQGTLVTVSS
VL: B7 VL with P7A, W99V

One assay has as its target SARS-CoV-2 RBD (recombinant, limits not stated) (SARS-CoV-2, UniProt P0DTC2 333-526). Put plainly: SPR.
Broadly, the Kd is the equilibrium constant for the complex coming apart. As to B1, the equilibrium dissociation constant (Kd) was determined as 5.24 nM. The same measure, in the same setting: to B2 belongs 0.298 nM; to B3, 0.628 nM.

For a further assay, the target named is SARS-CoV-2 S2 (recombinant) (SARS-CoV-2). Put plainly: SPR. (In SPR one partner is held on a chip, and binding of the other changes the refractive index at the surface.)
For B4, the Kd was 41.1 nM.

With B5, the Kd worked out at 9.44 nM.

As for B6, the Kd stood at 38.6 nM. Consider B7, for which the Kd amounted to 21.8 nM.

The next assay has as its target SARS-CoV-2 NTD (recombinant, limits not stated) (SARS-CoV-2). In words: SPR.
For the molecule B8, the Kd was 63.4 nM. For B9, the Kd is 7.49 nM. Same read-out and setting: to B10 belongs 4.32 nM.
